Test results taken from article PMC12093266 (2025).

T1: TrnD (Bacillus thuringiensis, fluorescently labeled (in the MST of Fig. 5D only))
T1 chain: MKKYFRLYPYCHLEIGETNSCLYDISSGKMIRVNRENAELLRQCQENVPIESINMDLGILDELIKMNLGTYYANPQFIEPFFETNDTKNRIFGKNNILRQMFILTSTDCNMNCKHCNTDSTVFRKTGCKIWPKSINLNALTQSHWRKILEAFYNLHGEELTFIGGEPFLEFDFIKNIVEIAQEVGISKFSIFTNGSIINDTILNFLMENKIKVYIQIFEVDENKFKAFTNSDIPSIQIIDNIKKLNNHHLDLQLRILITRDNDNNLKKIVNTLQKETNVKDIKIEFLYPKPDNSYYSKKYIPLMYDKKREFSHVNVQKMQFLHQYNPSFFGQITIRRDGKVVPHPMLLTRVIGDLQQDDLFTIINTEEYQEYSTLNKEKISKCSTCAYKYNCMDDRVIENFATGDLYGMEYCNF

B1: TrnC (enzyme)
chain: MSKKRLSMMPFKTDKFSYALDGNTGRVIVADKPTLYIISHFHKFEKEELLKKTKGKFAELHQDYLTTYNYVSSLINMGMFYLSEKEDSDSPIDSKELAINSNQSQLILILTEKCNLRCEYCIYNDKYPKEMGYSDEEMDFETAKKAVDMYYELHMERVKRGHKRFPVITMYGGEPLLKFDLIKKVMEYAKGLMPDTLFYTTTNGTLLSEKMMDYFINNRIIITFSIDGFKENHDRNRVFVNGMPTFERAFKNIKRLQEKKKEQNIEQIISFNCCFDQYTDVYKVAKFFEEHYDLFNPFFVLYNQINPFDTLYFDWCDEQVKTGKWNFDKNNFKNAMQKIEHELYEAETCDDHFQQVAGPLVMKDFVLSIRNKDGQQQITRNSCIPTSKIAVSPDGTLTLCEKMCKKYPIGTVEKGLDWKAVDGVTEKLVRHFNSDSCKYCPIRTMCEACFMFLDENGRIKPSFCKSKKMAVKKNLESYFAKKEKGFDVMKVYNHTSDLDSVKEMVK
modifications: fluorescently labeled with RED-NHS (in the MST experiments where TrnC is the labelled partner)

Assays:
Assay in all cases: MST
TrnC = target: B1
TrnD = target: T1, TrnD
E79A mutant of TrnD = E79A mutant of TrnD (Bacillus thuringiensis)

| Binder | Kd (TrnC) | Kd (TrnD) | Kd (E79A mutant of TrnD) |
| --- | --- | --- | --- |
| MEVMNNALITKVDEEIGGNAACVIGCIGSCVISEGIGSLVGTAFTLG [TrnA] | 5.41 µM | 4.43 µM |  |
| B1 |  |  | 0.59 µM |
| MEVLNKQNVNIIPESEEVGGWVACVGACGTVCLASGGVGTEFAAASYFL [TrnB] | 2.47 µM | 2.11 µM |  |
